Biological target: T1, HapR (Vibrio cholerae E7946 (El Tor)) (UniProt Q4F6W7)
T1 sequence: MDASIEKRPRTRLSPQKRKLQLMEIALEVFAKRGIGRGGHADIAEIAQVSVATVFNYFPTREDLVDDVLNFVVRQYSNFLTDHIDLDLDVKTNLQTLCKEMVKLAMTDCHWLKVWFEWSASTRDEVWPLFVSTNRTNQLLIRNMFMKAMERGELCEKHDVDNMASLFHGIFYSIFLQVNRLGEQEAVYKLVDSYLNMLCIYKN
Assay: EMSA
Details: 1-2 internal Cy5-dCTP incorporated by PCR

TAAGCAAACTGTAGCGTAGAAGGTTGACGAAACAAGCAATCATCTGCTAACAATGGTCCGTGTGATACCCATCATCCGGGCCATTTATTTTAGGGATATAAGACTATGAGCTACCAAGAAAAAAATGCA (double strand) [PclpP promoter probe]
binding: no binding
